20 sequences from the DeepSol protein solubility set can be followed below.

This data set can be described thus: soluble on expression in E. coli; label from the status in PepcDB or PDB records.
For the sequence “MGSDKIHHHHHHTEDKDWSGGLKNSDLVFQTYLPTEGAKGTELSIRGNNFGEDISQVQVWVNEKEAEVISVTSTRIMARVAEASGSGVVKVRVGEVVYSYPDLFSYGYIRNVYTVAGNGQGTTVDGAYLQASVQWPIVMVYDKWDDAILFLQDEGEHRIRRMKDGKIETLCSTKSLVNNARSICFSLDGDTLFIGNDNANNYVANPVAVGMVTRKGGFKDLKSYIPSEKLAQPHINGIAVNPVDGSLFTYHWGRHVFRYNKATETCEYVITRDQFNELVVGLFPDADGNMQNIGGDGGYGGLAFSPDGKTLYWNGRDPYQGILKADYDLVTKKCTNLTRFAGNGVWGIIDGQGVSSRMDQPNQIAVDAEGNLLVTTVYGRTVRKITPEGYVSTYAGIGYQTGYVDGLAAEAKFNKPYGIAIDAQGNVYVGDCENWRIRVIKEE”, the “soluble on expression in E. coli” value is “not soluble”.

Consider “MSLTVERVSAPTPAAFVDAANAAFRNGAVLSVQARCEVEYNGRTSGYLGDGDRLLVAKPDGTFLVHQPTGHKPVNWMPGGGTVEARTSQGDAVLLARRSNPTERVETRLHEVYGVTRFDAEDGATYEESGTEAEMHEYIEANPDALEAGLRIVEHERETKYGFIDFYAVDGDGTPVVIEVKRIQATLNHFDQLKRYVDRYAETNDDVRGMLVAPSASERVTRALRDNGLEFVALAEFGLDAKGATEAKLTDFEGHHHHHH”, for which the “soluble on expression in E. coli” value is “soluble”.

On to “SENDSIELDDVANLMFYGEGQIGTNKQPFMFIFDTGSANLWVPSVNCDSIGCSTKHLYDASASKSYEKDGTKVEISYGSGTVRGYFSKDVISLGDLSLPYKFIEVTDADDLEPIYSGSEFDGILGLGWKDLSIGSIDPVVVELKKQNKIDNALFTFYLPVHDKHVGYLTIGGIESDFYEGPLTYEKLNHDLYWQIDLDIHFGKYVMQKANAVVDSGTSTITAPTSFLNKFFRDMNVIKVPFLPLYVTTCDNDDLPTLEFHSRNNKYTLEPEFYMDPLSDIDPALCMLYILPVDIDDNTFILGDPFMRKYFTVFDYEKESVGFAVAKNL”, for which the “soluble on expression in E. coli” value is on record as “soluble”.

For the sequence “MDSSEVVKVKQASIPAPGSILSQPNTEQSPAIVLPFQFEATTFGTAETAAQVSLQTADPITKLTAPYRHAQIVECKAILTPTDLAVSNPLTVYLAWVPANSPATPTQILRVYGGQSFVLGGAISAAKTIEVPLNLDSVNRMLKDSVTYTDTPKLLAYSRAPTNPSKIPTASIQISGRIRLSKPMLIAN”, the “soluble on expression in E. coli” value was “soluble”.

Consider “MSLALIVQKFGGTSVGTVERIEQVAEKVKKFREAGDDVVVVVSAMSGETNRLIGLANQIMEQPVPRELDVMVSTGEQVTIALLSMALIKRGVPAVSYTGNQVRILTDSAHTKARILHIDDTHIRADLKAGRVVVVAGFQGVDGNGNITTLGRGGSDTTGVALAAALKADECQIYTDVDGVYTTDPRVVPQARRLDKITFEEMLEMASLGSKVLQIRAVEFAGKYNVPLRVLHSFQEGPGTLITIDDEEESMEQPIISGIAFNRDEAKLTIRGVPDTPGVAFKILGPISAANVEVDMIVQNVAHDNTTDFTFTVHRNDYLNALEILKQTAANIGAREAIGDTNIAKVSIVGVGMRSHAGVASRMFEALAKESINIQMISTSEIKVSVVIEEKYLELAVRALHTAFELDAPARQGEEGHHHHHH”, for which the “soluble on expression in E. coli” value was “soluble”.

For “GHHHHHHEAIAKRLDACQDQLLELYEENSIDIHKHIMHWKCIRLESVLLHKAKQMGLSHIGLQVVPPLTVSETKGHNAIEMQMHLESLAKTQYGVEPWTLQDTSYEMWLTPPKRCFKKQGNTVEVKFDGCEDNVMEYVVWTHIYLQDNDSWVKVTSSVDAKGIYYTCGQFKTYYVNFNKEAQKYGSTNHWEVCYGSTVICSPASVSSKKKK”, the “soluble on expression in E. coli” value is “soluble”.

For “MGIYEAIQATIKEAMKARDERTLAFARVVKAELDRKGDGKPLPDEEAVKVLKALKEIALEQGNAFEAEFLDRFLPKEMSEEELEAWIREHVDLSQFKNPLAAIGVVTKALGPKAPGEKVRKVIERLTR”, the “soluble on expression in E. coli” value is reported as “soluble”.

For “LYLEQSDIEGHIGVFGSTGSGKTTTLATIACGAAEAGLPVVVADWHGEYQRLVGGGGCRPRVIDPGREGGVNPLSLGWDYSVKTALLASALGLTEPQHYMLLKLLEEHEPRSLIELHSMVEDVEENSRWDREVKRGLMRRLGPLASRAGRSLVEGEGPPIGGRGLYIVDTGSIGNVQLRKTYSILLAAYLQYKAYSRELGPLLLVVDEAHNMFDGEESFPSIMMAESRKFGLYIALATQNPHLLPLRAVSNTNTKIVHSLRWWRDLESIASALSLPRETASKLPHLGRGEAVVYAPSLGYPVLAKIVPPE”, the “soluble on expression in E. coli” value is given as “not soluble”.

For the sequence “HPIFQRDGDDLHCEVPVRISQAALGDIVRVATLDGEAEIRIPAETQSGKLFRLRGKGVRSVRSRTEGDLYCRIVVETPVNLTAEQRKLLEQFEMTFAGEDARK”, the “soluble on expression in E. coli” value is given as “not soluble”.

Take “MKSNTSQQRPYQEVGAMIRDLIVQTPYRPGERLPPEREIAERLNVTRTVVREALIMLEIKGLVEVRRGAGIYVLDSADNNEMEGADVNHCNDAGPFELLQARQLLESNIAEFAALQATREDIIKMRQALQLEERELASSAPGGSESGDMQFHLAIAEATHNSMLVELFRQSWQWRENNPMWLQLHSHLGDTLYRKEWLVDHKQILAALIKKDARAAKLAMWQHLENVKQRLLEFSNVDDIYFDGYLFESWPLDNVDA”: the “soluble on expression in E. coli” value is listed as “not soluble”.

Take “MGSSHHHHHHSSGLVPRGSHMNVKKFPEGFLWGAATSSYQIEGAWNEDGKGESIWDRFTRIPGKIKNGDSGDVACDHYHRYEQDLDLMRQLGLKTYRFSIAWARIQPDSSRQINQRGLDFYRRLVEGLHKRDILPMATLYHWDLPQWVEDEGGWLSRESASRFAEYTHALVAALGDQIPLWVTHNEPMVTVWAGYHMGLFAPGLKDPTLGGRVAHHLLLSHGQALQAFRALSPAGSQMGITLNFNTIYPVSAEPADVEAARRMHSFQNELFLEPLIRGQYNQATLMAYPNLPEFIAPEDMQTISAPIDFLGVNYYNPMRVKSSPQPPGIEVVQVESPVTAMGWEIAPEGLYDLLMGITRTYGKLPIYITENGAAFDDQPDQSGQVNDPQRVGYFQGHIGAARRALADGVDLRGYYAWSLLDNFEWAEGYSKRFGIIYVDFETQQRTLKQSAQWYRDVIANNGLED”: the “soluble on expression in E. coli” value was “soluble”.

As for “MPRKLLEERSTGSATKWLREEEKIEKKSRADQLKIKFMQTRDNSDINSIFSEPPSEFSVLCDDDDCDKGSVVSSTLTTSIRKTFSSFRFDENQRKKGTRKRRSSEKGRICRRKVHIILARNMLRKENELYKKDAEYCQTPRAVADGCSFSTLPTI”, the “soluble on expression in E. coli” value is recorded as “not soluble”.

Turning to “MGSDKIHHHHHHMATLSRLFIHPVKSMRGIGLTHALADISGLAFDRIFMVTEPDGTFITARQFPQMVRFTPSPLHDGLHLTAPDGSSALVRFTDFTPQDAPTEVWGNHFTARVAPTAINQWLSGFFSRDVQLRWVGPQLTRRVKRHNAVPLGFADGYPYLLTNEASLRDLQQRCPAGVQMEQFRPNLVVSGVAAWEEDSWKVLRIGDVIFDVVKPCSRCIFTTVSPEKGQKHPSGEPLATLQAFRTALDNGDVDFGQNLIARNSGVIRVGDEVEILATAPAKAYGATTVDNSVTPEKHPDASVTIDWQGQTFCGNNQQVLLEQLENQGIRIPYSCRAGICGCCRIRLLEGEVSPLKKSAMGDDGTILSCSCVPKTALRLEN”, the “soluble on expression in E. coli” value is given as “not soluble”.

In the case of “MGSDKIHHHHHHMTSLFYSPLIKYRVDVLPSSELKKENINTKALVVIGDGINREKISEDLELNPLLVRIVGKDSSKEEVEYNKVVLENAWLADLAPVEEIKSIDRRSLLRGEVKKAKKVDKPIYLSEYCNGLYKACNVCEFSCPYNAIKVDKKTGVNIDYTKCTSCGLCVASCPVSAIQFPSLSQNSIFELAKVKGEKRITCYRNTKNRGVKIPCLAMLSEVDIVLLRGSGNLTFECVGCELQDNLKDFIEVIKEYNERIGGISFYSPSEKIEAKETKELNTTPQSFYNRAEARRNISDELPYILFDVSIDNNRCTLCESCVNWCPTSAIMLRRSSGVEEIDFDPMKCIGCNICVNVCPESCKLEEGKTSEIPPNIASLTKVIKVEKSKSVNKEVRKLVGDELVRCRVCGAPIGSRKSLNHVKKIMIEKGASCEDEWLERCPKHRAEYAFQKQFSFNARFKPRGDLR”, the “soluble on expression in E. coli” value is “not soluble”.

As for “MKIFFITSNPGKVREVANFLGTFGIEIVQLKHEYPEIQAEKLEDVVDFGISWLKGKVPQPFMIEDSGLFIESLKGFPGVYSSYVYRTIGLEGILKLMEGAEDRRAYFKSVIGFYIDGKAYKFSGVTWGRISNEKRGTHGFGYDPIFIPEGSEKTFAEMTIEEKNALSHRGKALKAFFEWLKVNLKY”, the “soluble on expression in E. coli” value is “soluble”.

As for “MGSDKIHHHHHHMDGSLNGETWRFIVRNIRIGVVEDDPASCQLVLDYLNRYQSETGEQFTVSVFDDGARIVEKYAPVYDILLLDIEMKEIDGMAAARRIRERDDNVVIIFITAAPQYAISGYEVRALSYLLKPLPWFAFSQELKKSIDMVRRNGDDSMLIETGKGQMRMNLTDILYLESIRHTIVIHTLDGKYSINGTLKDMEAKLADRHFFRSNSCYLVNLKHVTGVADQDCIMSDDERLRVSRPRKKAFLAALADYMGGGR”, the “soluble on expression in E. coli” value is “not soluble”.

Consider “MKKIAIIGGGIIGMTLANYLDPQKFDITVYDEGLGQATKASAGIISPWLSKRRNKKWYQLAREGAALFPKLVKDFQLTEDIYRQSGTVILRPAAALADLAHLAEERKQTAPEIGEITMLSAVQTAKFLPLLKETPSLFISGGGRLDGPAYLNHLQKRAEAKGVTFCSQRAHFRQLNQGWEIVTNSEKKSVDFLALTPGPHLKELLTTLNLSVDIRPQKGQLLVFETPFTNSQQWPVAMLDGEADLIPFNQGKILLGATHENEQAWDLEETVSAFQQLTSGTAPFLKEAEQLFKQPMHYRVGTRAYTSDFAPFFGPLPEMPHLVVASGLGSSGLTTGPFIGYQLAEYFNTGAFKGELYQKPLSQYVKNNPSL”, for which the “soluble on expression in E. coli” value was “not soluble”.

Turning to “MGSDKIHHHHHHMTPRSGKTTAGHFRYARYLIESEDENHLVTAYNQEQAYRLFIDGDGTGLMHIFDGNCEIKHDERGDHLLITTPKGNKRVYYKGGGKVNSVGAITGMSLGSVVFCEINLLHMDFIQECFRRTWAAKLRYHLADLNPPAPQHPVIKDVFDVQNTRWTHWTMDDNPILTAERKQNIINSLKKNPYLYKRDVLGQRVMPQGVIYGLFDTEKNVLDALIGEPVEMYFCADGGQSDATSMSCNIVTRVRDNGRISFRLNRVAHYYHSGADTGQVKAMSTYALELKVFIDWCVKKYQMRYTEVFVDPACKSLREELHKLGVFTLGAPNNSKDVSSKAKGIEVGIERGQNIISDGAFYLVNHSEEEYDHYHFLKEIGLYSRDDNGKPIDKDNHAMDEFRYSVNVFVHRYYN”, the “soluble on expression in E. coli” value is reported as “not soluble”.

As to “MSDSQTLVVKLGTSVLTGGSRRLNRAHIVELVRQCAQLHAAGHRIVIVTSGAIAAGREHLGYPELPATIASKQLLAAVGQSRLIQLWEQLFSIYGIHVGQMLLTRADMEDRERFLNARDTLRALLDNNIVPVINENDAVATAEIKVGDNDNLSALAAILAGADKLLLLTDQKGLYTADPRRNPQAELIKDVYGIDDALRAIAGDSVSGLGTGGMSTKLQAADVACRAGIDTIIAAGSKPGVIGDVMEGISVGTLFHAQATPLENRKRWIFGAPPAGEITVDEGATAAILERGSSLLPKGIKSVTGNFSRGEVIRICNLEGRDIAHGVSRYNSDALRRIAGHHSQEIDAILGYEYGPVAVHRDDMITR”, the “soluble on expression in E. coli” value is “not soluble”.

For “MGSDKIHHHHHHMTMTNTPRQDSPFEKPVRVRAGFSLTFDVPYATPMIFVVQPQDRLSPTGTRQRIIDQRPLAAAEGIHTYTDTHGNLIWRTVAQPGEFTIGHDLIAEIERRPDPQLPGLRKMMVEELPDDVLQYLLPSRYVDSDLVSAEAWERFGNVQGGWAQVQAVCDYLFDTCVYGYGSNSTTTASQALGSGRAVCRDFAHMGVAFCRALNIPARYVCGYMPDIDYPPDPVPMDFHAWFEAFIDGEWRTFDARHNIPRTGRVLIAQGRDASDVAFTTSFGSAKLVNMKVWADETDFDNTLDIAPNPRIF”, the “soluble on expression in E. coli” value is on record as “not soluble”.
